{"source": "patent US8889621B2", "about": "“Inhibiting binding of FGF23 to the binary FGFR-Klotho complex for the treatment of hypophosphatemia” (New York University, priority 2009, dated 2014)", "molecules": {"B1": {"name": "FGF23^28-200: C-terminally truncated FGF23 protein (A28 to T200), lacks the last 51 C-terminal amino acids (protein)", "chain": "ASPLLGSSWGGLIHLYTATARNSYHLQIHKNGHVDGAPHQTIYSALMIRSEDAGFVVITGVMSRRYLCMDFRGNIFGSHYFDPENCRFQHQTLENGYDVYHSPQYHFLVSLGRAKRAFLPGMNPPPYSQFLSRRNEIPLIHFNTPIPRQHTQSAEDDSERDPLNVLKPRARMT"}}, "key": {"[1]": {"system": "binary FGFR-Klotho complex", "sequence (O35082 35-1014, one chain of several)": "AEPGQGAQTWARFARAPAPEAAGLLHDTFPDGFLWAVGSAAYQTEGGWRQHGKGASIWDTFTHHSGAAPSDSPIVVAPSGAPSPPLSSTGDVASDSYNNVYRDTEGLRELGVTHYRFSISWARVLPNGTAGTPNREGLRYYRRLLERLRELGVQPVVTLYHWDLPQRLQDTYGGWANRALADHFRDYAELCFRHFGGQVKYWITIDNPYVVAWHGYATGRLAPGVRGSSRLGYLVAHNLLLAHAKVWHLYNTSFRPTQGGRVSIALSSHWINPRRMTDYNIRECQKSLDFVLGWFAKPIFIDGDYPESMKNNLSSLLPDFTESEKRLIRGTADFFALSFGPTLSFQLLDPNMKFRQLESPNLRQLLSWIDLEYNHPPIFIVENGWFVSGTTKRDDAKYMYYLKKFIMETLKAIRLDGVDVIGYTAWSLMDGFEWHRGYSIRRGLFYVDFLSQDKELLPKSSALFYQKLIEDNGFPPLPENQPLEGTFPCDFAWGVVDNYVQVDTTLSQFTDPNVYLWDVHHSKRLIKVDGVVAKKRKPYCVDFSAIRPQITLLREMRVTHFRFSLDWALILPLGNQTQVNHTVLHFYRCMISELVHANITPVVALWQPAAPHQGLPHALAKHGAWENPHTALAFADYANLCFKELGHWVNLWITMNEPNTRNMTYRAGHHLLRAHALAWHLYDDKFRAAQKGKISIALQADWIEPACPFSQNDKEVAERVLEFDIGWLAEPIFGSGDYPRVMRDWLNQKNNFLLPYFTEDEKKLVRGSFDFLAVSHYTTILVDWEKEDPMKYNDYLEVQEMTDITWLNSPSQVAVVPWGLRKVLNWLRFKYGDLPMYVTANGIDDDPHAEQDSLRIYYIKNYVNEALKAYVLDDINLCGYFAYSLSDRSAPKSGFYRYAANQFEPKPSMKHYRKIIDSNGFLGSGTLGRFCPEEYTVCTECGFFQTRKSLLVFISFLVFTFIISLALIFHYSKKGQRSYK", "assay": "Pull-down / co-precipitation of FGF23 proteins with FGFR-Klotho complex", "type": "binding", "details": "HEK293-Klotho cell lysate", "experimental": "A pull-down assay may also be used to confirm the existence of a protein:protein interaction (i.e. FGF23^180-251 binding to the binary FGFR-Klotho complex). One aspect of the present invention utilizes pull-down assays. These assays involved subconfluent cultures of a HEK293 cell line ectopically expressing the FLAG-tagged membrane-spanning form of murine Klotho, which were harvested and lysed. Cell lysate was incubated with FGF23^28-251, FGF23^28-200, FGF23^28-179, FGF23^180-251, or protein sample buffer, and binary complexes of Klotho and endogenous FGFR were isolated from cell lysate using anti-FLAG M2 agarose beads. […]\nIn parallel, subconfluent HEK293-Klotho cells (Kurosu et al., “Regulation of Fibroblast Growth Factor-23 Signaling by Klotho,” J Biol Chem 281(10):6120-6123 (2006), which is hereby incorporated by reference in its entirety) were transfected with expression vectors for V5-tagged FGFR1c, FGFR3c, or FGFR4 (Kurosu et al., “Regulation of Fibroblast Growth Factor-23 Signaling by Klotho,” J Biol Chem 281(10):6120-6123 (2006), which is hereby incorporated by reference in its entirety) and binding of FGF23 proteins/peptides to Klotho-FGFR complexes isolated from cell lysate was analyzed. […]"}, "[2]": {"system": "tyrosine phosphorylation of FRS2α and downstream activation of MAP kinase cascade", "assay": "Phosphorylation of FRS2α and 44/42 MAP kinase in CHO Klotho cell line", "type": "cell-based", "experimental": "Subconfluent HEK293-Klotho cells (Kurosu et al., “Regulation of Fibroblast Growth Factor-23 Signaling by Klotho,” J Biol Chem 281(10):6120-6123 (2006), which is hereby incorporated by reference in its entirety) were serum starved for 16 h and then stimulated for 10 min with either FGF23^28-251 (0.33 to 10 nM) or FGF23^180-251 (0.76 to 76.3 nM). In parallel experiments, cells were stimulated with FGF23^28-251 (1 nM) alone or with FGF23^28-251 (1 nM) mixed with increasing concentrations of either FGF23^180-251 (0.76 to 76.3 nM) or FGF23^180-205 (0.1 to 10 μM). Cell stimulation with FGF2 (2.9 nM) alone or FGF2 (2.9 nM) mixed with increasing concentrations of FGF23^180-251 (0.76 to 76.3 nM) served as controls. Similarly, subconfluent cells of a CHO cell line stably expressing Klotho (Imura et al., “Secreted Klotho Protein in Sera and CSF: Implication for Post-translational Cleavage in Release of Klotho Protein from Cell Membrane,” FEBS Lett 565(1-3):143-147 (2004), which is hereby incorporated by reference in its entirety) were treated with either FGF23^28-251 (0.067 to 20 nM) or FGF23^28-200 (0.04 to 12 nM). […]"}, "C57BL/6 mice": {"system": "C57BL/6 mice", "assay": "Serum phosphate in C57BL/6 mice after IP injection", "type": "in vivo, mouse", "details": "two injections of 5 μg, healthy C57BL/6 mice", "experimental": "The phosphaturic activity of […] was examined in ˜6-week old C57BL/6 mice by a published protocol (Goetz et al., “Molecular Insights into the Klotho-dependent, Endocrine Mode of Action of Fibroblast Growth Factor 19 Subfamily Members,” Mol Cell Biol 27(9):3417-3428 (2007), which is hereby incorporated by reference in its entirety). FGF23^28-251, FGF23^28-200, or vehicle were injected IP into the animals. Each mouse received two injections at 8 h intervals, of 5 μg of protein per injection. Before the first injection and 8 h after the second injection, blood was drawn by cheek-pouch bleeding and spun at 3,000×g for 10 min to obtain serum. Serum phosphate levels were determined using Phosphorus Liqui-UV reagent (Stanbio Laboratory)."}}, "note": "“Also recorded” adds a separate entry of the source."}
{"molecule": "B1", "values": [{"measurement": "co-precipitation with the binary FGFR-Klotho complex", "setting": "[1]", "value": "still retains the ability to co-immunoprecipitate"}, {"measurement": "induction of phosphorylation of FRS2α and activation of MAP kinase cascade", "setting": "[2]", "value": "at a dose comparable to that of FGF23^28-251"}, {"measurement": "reduction of serum phosphate concentration (phosphaturic activity)", "setting": "C57BL/6 mice", "value": "nearly as effective as the full-length ligand; also recorded: exhibits phosphaturic activity"}]}
